# Data reported in publication PMC9174195, “Structural insights into human brain–gut peptide cholecystokinin receptors” (Cell Discovery, 2022).
# Square brackets hold non-standard residues; d marks the D form. Ends that are not written are not given here. sY = N[C@@H](Cc1ccc(OS(=O)(=O)O)cc1)C(=O)O
# T1: human CCK2R with 15-residue depletion at the C-terminus, N-terminal Flag-tag, C-terminal LgBiT and double MBP … (human, UniProt P32239 1-432)
# T1 construct: human cholecystokinin receptor CCK2R, wild type, C-terminal 15 residues removed; also called CCK2 receptor; gastrin receptor; not shown: LgBiT, C-terminal, kept
# T1 sequence (looked up): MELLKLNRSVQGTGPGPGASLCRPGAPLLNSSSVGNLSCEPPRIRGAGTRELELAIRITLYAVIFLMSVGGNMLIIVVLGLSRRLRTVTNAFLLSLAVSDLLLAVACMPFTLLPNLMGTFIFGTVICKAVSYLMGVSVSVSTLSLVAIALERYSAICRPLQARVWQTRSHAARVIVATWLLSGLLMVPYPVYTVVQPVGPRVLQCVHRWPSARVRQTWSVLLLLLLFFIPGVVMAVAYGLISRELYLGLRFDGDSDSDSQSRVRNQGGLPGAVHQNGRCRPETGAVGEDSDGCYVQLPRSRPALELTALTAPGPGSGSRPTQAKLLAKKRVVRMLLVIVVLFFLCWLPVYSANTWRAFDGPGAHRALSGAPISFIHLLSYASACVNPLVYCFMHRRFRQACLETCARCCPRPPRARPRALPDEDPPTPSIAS
# B1: sulfated gastrin-17 (peptide, UniProt P01350 76-92, looked up)
# peptide: QGPWLEEEEEA[sY]GWMDF
# modifications: not fully specified (residue 1, C-terminus)
# notes: gastrin-17, cut product of the gastrin precursor
# Columns and labels:
# CCK2R L335A (human) = CCK2R L335A (human) (UniProt P32239)
# CCK2R I156A (human) = CCK2R I156A (human) (UniProt P32239)
# CCK2R R152A (human) = CCK2R R152A (human) (UniProt P32239)
# CCK2R Q166A (human) = CCK2R Q166A (human) (UniProt P32239)
# CCK2R K324N (human) = CCK2R K324N (human) (UniProt P32239)
# [1] = target: T1, human CCK2R with 15-residue depletion …; experiment: cryo-EM structure; gastrin-17–CCK2R–Gq–scFv16 complex; CCK2R, GqiN, Gβγ-peptide and Ric-8A co-expressed in Sf9, ligand and apyrase added, complex purified on MBP resin and Superdex 200 (20 mM HEPES pH 7.5, 100 mM NaCl); 13 mg/mL on the grid; 3.1 Å; conditions: both partners purified
molecule,measurement,setting,value
Gαq with the 29 N-terminal amino acids replaced by the corresponding sequence of Gαi1 (GqiN) (from UniProt P50148 30-359),"CCK-8 efficacy, CCK-8-induced Gαq–Gγ dissociation (NanoBiT) assay (% reduction of efficacy)",CCK2R L335A (human),50
same,"CCK-8 efficacy, CCK-8-induced Gαq–Gγ dissociation (NanoBiT) assay (% reduction of efficacy)",CCK2R I156A (human),50
same,"efficacy of G protein signaling against the wild type, CCK-8-induced Gαq–Gγ dissociation (NanoBiT) assay (% of the wild-type)",CCK2R R152A (human),30
same,"potency of G protein signaling against the wild type, CCK-8-induced Gαq–Gγ dissociation (NanoBiT) assay",CCK2R R152A (human),> 3 fold
same,"CCK-8 efficacy, CCK-8-induced Gαq–Gγ dissociation (NanoBiT) assay (% reduction of efficacy)",CCK2R Q166A (human),50
dominant-negative human Gαs (DNGαs) (from UniProt P63092 1-394) (natural protein),"coupling potency with Gs against wild-type CCK2R, CCK-8-induced cAMP accumulation (Fig. 7d)",CCK2R K324N (human),> 3 fold
B1,binding result,[1],binds
